Numbering of substitutions follows the chain as printed. Blank lines part the entries; values can stand above or below the binder they belong to.
How the values were obtained:
[1] = molecular target: fusion protein in which the extracellular domain of Cynomolgus monkey GITR is fused with the domain of mouse IgG1-Fc (Cynomolgus monkey); experiment: ELISA, cynoGITR-muFc coated at 5 ug/ml, anti-human IgG-HRP (FIG. 7)
[2] = molecular target: fusion protein in which the extracellular domain of Cynomolgus monkey GITR is fused with the domain of mouse IgG1-Fc (Cynomolgus monkey); experiment: ELISA, cynoGITR-muFc coated at 5 ug/ml, anti-human IgG-HRP (FIG. 8)

Chain of fusion protein in which the extracellular domain of Cynomolgus monkey GITR is fused with the domain of mouse IgG1-Fc (Cynomolgus monkey) (chain, as listed by the source limits assumed, form in doubt): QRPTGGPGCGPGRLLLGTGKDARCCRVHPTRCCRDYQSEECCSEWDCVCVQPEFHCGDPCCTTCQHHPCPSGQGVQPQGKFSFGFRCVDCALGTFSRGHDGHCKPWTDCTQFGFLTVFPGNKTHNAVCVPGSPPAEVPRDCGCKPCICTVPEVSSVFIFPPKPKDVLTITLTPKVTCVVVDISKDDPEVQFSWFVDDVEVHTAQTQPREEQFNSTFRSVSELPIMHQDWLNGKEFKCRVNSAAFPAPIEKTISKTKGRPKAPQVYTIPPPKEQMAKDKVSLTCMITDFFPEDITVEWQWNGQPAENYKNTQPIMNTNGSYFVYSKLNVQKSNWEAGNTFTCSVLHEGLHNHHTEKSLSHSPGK

EC50 [1]: 0.0704 µg/mL
EC50 [2]: 0.0747 µg/mL
B1: isolated antigen-binding protein C3E2 (antibody, human IgG1, kappa, V domains shown)
VH: QVQLQESGPGILQPSQTLSLTCSFSGFSLSTFGMGVGWIRQPSGKGLEWLVLILWNDIKYYNPALKSLLTVSKDTSNNQVFLKIASVDTADTATYYCARVDGYYGYFDVWGTGTTVTVSS
VL: DIVMTQSPLSLPVSLGDQASISCRSSQTIVHSNGNTYLEWYLQKPGQSPKLLIYKVSNRFSGVPDRFSGSGSGTDFTLKISRVEAEDLGVYYCFQGSHVPWTFGGGTKLEIKR

EC50 [1]: 0.0517 µg/mL
B2: isolated antigen-binding protein 3E2 1-2 (antibody, human IgG1, kappa, V domains shown)
VH: QVTLQESGPTLVKPTQTLTLTCTFSGFSLSTFGMGVGWIRQPPGKGLEWLVLILWNDIKYYNPALKSLLTVTKDTSKNQVVLTITNMDPVDTATYYCARVDGYYGYFDVWGQGTMVTVSS
VL: B1 VL with S14T, D17Q, Q18P, K44R, L88V, L109V
